{"source": "patent US20140072613A1", "about": "“Compositions and Methods for Treating Cutaneous Scarring” (priority 2012, published 2014)", "assay_in_all_cases": "cell-based or functional assay", "key": {"cKit(D816V)(h) (human)": {"biological_target": "cKit(D816V)(h) (human) (UniProt P10721)", "sequence (P10721 544-976 D816V)": "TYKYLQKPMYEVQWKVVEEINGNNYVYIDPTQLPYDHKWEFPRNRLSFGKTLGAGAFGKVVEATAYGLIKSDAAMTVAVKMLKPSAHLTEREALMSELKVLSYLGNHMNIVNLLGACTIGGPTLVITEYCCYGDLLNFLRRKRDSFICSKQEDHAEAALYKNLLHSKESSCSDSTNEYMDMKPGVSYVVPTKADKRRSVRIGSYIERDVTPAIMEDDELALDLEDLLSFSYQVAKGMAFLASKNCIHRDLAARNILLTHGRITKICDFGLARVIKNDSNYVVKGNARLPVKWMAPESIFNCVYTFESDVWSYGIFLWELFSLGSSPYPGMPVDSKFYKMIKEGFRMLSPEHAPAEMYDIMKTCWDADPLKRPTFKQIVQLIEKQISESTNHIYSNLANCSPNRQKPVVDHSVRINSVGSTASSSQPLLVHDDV"}, "EGFR(h) (human)": {"biological_target": "EGFR(h) (human) (UniProt P00533)"}, "PKCζ(h) (human)": {"biological_target": "T1, PKCζ(h) (human) (UniProt Q05513)", "T1 sequence (looked up)": "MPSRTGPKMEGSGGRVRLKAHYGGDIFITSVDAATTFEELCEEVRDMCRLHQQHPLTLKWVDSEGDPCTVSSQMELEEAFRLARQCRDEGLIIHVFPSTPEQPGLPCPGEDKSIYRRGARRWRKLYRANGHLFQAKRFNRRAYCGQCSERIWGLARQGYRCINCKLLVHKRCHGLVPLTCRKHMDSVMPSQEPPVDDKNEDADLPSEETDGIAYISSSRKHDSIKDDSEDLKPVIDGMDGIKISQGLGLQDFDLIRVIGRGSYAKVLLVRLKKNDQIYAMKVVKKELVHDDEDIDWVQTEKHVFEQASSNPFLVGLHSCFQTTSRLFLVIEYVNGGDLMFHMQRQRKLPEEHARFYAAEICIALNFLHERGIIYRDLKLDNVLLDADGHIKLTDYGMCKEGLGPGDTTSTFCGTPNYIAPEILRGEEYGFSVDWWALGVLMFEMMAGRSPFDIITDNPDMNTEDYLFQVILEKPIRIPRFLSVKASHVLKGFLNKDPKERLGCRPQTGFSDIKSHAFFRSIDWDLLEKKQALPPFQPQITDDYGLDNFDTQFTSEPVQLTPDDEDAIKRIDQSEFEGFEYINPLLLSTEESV"}, "FAK(h) (human)": {"biological_target": "FAK(h) (human) (UniProt Q05397)", "sequence (Q05397 whole entry)": "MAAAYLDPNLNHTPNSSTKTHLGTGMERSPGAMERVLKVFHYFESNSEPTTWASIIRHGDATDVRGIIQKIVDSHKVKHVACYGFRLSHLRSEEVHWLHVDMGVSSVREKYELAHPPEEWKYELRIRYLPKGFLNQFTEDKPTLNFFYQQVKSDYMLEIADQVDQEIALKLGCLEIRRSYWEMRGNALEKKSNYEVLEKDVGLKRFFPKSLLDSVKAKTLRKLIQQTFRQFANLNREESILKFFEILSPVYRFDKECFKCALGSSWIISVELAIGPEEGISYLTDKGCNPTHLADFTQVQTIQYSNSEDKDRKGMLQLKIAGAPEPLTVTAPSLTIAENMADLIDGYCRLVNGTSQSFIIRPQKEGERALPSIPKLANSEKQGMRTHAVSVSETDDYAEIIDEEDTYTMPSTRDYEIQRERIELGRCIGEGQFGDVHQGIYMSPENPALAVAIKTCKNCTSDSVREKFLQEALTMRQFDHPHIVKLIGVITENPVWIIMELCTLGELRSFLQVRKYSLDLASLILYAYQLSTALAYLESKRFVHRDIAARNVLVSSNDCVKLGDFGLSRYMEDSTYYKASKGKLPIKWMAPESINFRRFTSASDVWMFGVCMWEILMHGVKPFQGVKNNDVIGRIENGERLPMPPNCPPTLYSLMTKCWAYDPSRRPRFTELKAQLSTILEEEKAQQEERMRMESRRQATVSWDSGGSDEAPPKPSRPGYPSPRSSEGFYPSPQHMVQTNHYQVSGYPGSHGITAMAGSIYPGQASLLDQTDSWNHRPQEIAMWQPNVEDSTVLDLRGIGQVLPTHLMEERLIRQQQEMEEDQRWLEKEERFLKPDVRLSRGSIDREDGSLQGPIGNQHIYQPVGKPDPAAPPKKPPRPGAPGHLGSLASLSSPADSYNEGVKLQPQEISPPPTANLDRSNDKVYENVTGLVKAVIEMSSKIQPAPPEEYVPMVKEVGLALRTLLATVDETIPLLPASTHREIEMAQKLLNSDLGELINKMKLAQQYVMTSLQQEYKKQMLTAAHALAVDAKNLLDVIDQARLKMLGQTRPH"}, "PrKX(h) (human)": {"biological_target": "T2, PrKX(h) (human) (UniProt P51817)", "T2 sequence (looked up)": "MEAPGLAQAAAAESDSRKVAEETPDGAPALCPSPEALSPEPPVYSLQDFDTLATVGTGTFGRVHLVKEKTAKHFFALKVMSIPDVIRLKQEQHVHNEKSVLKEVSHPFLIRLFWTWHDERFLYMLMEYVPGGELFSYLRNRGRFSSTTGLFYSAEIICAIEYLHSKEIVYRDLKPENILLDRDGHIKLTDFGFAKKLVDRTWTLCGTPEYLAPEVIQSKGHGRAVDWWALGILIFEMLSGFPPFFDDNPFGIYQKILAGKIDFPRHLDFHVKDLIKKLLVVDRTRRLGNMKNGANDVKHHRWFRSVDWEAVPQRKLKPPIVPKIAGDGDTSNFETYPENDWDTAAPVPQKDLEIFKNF"}, "Pim-3(h) (human)": {"biological_target": "Pim-3(h) (human) (UniProt Q86V86)"}, "MEK1(h) (human)": {"biological_target": "MEK1(h) (human) (UniProt Q02750)"}, "CK1δ(h) (human)": {"biological_target": "CK1δ(h) (human) (UniProt P48730)", "sequence (P48730 1-294, stated change not applied)": "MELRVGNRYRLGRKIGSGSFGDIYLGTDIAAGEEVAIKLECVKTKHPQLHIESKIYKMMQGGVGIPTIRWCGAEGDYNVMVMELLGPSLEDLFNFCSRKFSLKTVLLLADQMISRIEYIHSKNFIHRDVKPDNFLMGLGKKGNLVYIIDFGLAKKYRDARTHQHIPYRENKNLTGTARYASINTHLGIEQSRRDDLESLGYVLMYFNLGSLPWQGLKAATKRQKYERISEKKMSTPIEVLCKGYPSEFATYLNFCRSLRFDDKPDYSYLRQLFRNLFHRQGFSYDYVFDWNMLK"}, "Met(D1246H)(h) (human)": {"biological_target": "Met(D1246H)(h) (human) (UniProt P08581)"}, "ALK(h) (human)": {"biological_target": "ALK(h) (human) (UniProt Q9UM73)", "sequence (Q9UM73 1058-1620 limits assumed)": "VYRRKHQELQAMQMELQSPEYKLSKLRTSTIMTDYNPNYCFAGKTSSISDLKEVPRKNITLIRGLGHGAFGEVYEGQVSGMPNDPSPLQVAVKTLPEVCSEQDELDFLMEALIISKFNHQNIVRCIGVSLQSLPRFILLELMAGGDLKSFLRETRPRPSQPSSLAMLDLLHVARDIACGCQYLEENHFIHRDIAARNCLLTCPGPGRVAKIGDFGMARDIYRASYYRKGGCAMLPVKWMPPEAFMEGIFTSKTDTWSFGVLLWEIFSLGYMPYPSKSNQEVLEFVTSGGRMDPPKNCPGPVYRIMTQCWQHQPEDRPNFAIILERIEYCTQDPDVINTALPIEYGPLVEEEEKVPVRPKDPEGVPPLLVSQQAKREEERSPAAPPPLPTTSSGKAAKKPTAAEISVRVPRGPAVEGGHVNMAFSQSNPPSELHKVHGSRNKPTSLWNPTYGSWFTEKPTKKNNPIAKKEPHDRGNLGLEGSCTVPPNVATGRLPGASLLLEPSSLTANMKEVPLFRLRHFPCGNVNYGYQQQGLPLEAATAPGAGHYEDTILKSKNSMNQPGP"}, "Src(1-530)(h) (human)": {"biological_target": "Src(1-530)(h) (human) (UniProt P12931)"}, "Hck(h) (human)": {"biological_target": "Hck(h) (human) (UniProt P08631)", "sequence (P08631 251-518 limits assumed)": "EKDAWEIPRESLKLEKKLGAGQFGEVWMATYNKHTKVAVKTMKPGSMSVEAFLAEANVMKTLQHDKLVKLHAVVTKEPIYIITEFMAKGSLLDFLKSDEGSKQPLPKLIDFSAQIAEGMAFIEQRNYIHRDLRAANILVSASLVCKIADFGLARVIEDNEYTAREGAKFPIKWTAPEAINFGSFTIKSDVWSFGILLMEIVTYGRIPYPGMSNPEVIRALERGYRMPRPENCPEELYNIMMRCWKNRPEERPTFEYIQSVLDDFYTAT"}, "CHK1(h) (human)": {"biological_target": "T3, CHK1(h) (human) (UniProt O14757)", "T3 sequence (looked up)": "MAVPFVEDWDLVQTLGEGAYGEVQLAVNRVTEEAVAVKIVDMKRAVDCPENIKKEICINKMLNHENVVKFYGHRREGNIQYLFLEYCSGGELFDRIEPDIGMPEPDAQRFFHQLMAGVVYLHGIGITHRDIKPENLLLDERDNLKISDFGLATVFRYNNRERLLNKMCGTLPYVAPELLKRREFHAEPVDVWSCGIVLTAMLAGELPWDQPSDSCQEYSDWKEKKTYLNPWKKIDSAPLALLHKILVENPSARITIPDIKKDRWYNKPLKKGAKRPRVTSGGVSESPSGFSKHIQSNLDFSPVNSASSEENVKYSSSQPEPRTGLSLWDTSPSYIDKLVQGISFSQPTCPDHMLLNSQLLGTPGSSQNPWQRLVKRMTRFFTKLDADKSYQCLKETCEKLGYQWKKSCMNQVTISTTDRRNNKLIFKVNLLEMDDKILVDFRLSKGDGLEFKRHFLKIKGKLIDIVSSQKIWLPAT"}, "EGFR(L858R)(h) (human)": {"biological_target": "EGFR(L858R)(h) (human) (UniProt P00533)"}, "Haspin(h) (human)": {"biological_target": "T4, Haspin(h) (human) (UniProt Q8TF76)", "T4 sequence (looked up)": "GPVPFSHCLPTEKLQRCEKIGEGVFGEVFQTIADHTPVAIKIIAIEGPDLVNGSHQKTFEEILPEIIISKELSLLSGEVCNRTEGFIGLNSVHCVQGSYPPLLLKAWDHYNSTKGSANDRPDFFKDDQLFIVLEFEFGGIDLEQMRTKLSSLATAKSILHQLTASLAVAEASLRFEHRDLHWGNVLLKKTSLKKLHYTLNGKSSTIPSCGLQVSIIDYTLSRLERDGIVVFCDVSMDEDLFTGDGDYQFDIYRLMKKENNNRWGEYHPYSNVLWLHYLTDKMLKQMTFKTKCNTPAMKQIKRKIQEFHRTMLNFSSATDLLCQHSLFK"}, "p70S6K(h) (human)": {"biological_target": "p70S6K(h) (human) (UniProt P23443)", "sequence (P23443 1-421)": "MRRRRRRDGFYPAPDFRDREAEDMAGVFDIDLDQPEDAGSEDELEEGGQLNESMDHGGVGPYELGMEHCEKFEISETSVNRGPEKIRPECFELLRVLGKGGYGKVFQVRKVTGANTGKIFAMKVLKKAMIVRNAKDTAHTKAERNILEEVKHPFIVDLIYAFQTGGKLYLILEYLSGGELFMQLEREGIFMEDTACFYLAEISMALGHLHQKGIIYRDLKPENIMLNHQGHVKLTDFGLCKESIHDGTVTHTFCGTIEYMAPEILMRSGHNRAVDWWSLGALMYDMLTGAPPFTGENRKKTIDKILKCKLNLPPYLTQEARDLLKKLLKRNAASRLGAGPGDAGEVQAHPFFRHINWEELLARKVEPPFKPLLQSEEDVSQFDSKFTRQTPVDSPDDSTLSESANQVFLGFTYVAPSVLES"}, "[1]": {"biological_target": "IGF-1R(h), activated (human) (UniProt P08069)", "sequence (P08069 959-1367 limits assumed)": "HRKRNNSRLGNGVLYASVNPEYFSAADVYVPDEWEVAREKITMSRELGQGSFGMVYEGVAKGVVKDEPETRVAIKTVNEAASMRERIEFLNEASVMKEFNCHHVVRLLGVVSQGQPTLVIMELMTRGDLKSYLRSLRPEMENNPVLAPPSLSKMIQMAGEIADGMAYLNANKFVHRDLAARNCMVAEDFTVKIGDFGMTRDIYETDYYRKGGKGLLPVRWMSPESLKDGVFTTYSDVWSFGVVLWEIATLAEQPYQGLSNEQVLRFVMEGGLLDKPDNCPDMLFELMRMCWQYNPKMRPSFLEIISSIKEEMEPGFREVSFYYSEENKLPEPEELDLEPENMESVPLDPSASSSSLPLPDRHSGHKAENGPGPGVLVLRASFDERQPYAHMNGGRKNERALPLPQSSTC"}, "LIMK1(h) (human)": {"biological_target": "LIMK1(h) (human) (UniProt P53667)", "sequence (P53667 285-638 limits assumed)": "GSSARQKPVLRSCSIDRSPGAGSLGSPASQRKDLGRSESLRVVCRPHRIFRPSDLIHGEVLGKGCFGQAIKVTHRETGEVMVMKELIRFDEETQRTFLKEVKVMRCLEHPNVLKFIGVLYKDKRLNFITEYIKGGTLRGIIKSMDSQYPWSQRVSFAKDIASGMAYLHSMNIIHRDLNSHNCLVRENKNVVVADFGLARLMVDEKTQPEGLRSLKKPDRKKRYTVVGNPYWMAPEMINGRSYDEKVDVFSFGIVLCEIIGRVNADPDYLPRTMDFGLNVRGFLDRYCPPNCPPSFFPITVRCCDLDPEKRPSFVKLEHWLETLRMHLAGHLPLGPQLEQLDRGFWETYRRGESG"}}}
{"substance": "MMI-0500 (peptide)", "values": [{"measurement": "% activity, 100 µM", "setting": "cKit(D816V)(h) (human)", "value": 30, "unit": "%"}, {"measurement": "% activity, 100 µM", "setting": "EGFR(h) (human)", "value": -1, "unit": "%"}, {"measurement": "% activity, 100 µM", "setting": "PKCζ(h) (human)", "value": 7, "unit": "%"}, {"measurement": "% activity, 100 µM", "setting": "FAK(h) (human)", "value": 94, "unit": "%"}, {"measurement": "% activity, 100 µM", "setting": "PrKX(h) (human)", "value": 57, "unit": "%"}, {"measurement": "% activity, 100 µM", "setting": "Pim-3(h) (human)", "value": 37, "unit": "%"}, {"measurement": "% activity, 100 µM", "setting": "MEK1(h) (human)", "value": 21, "unit": "%"}, {"measurement": "% activity, 100 µM", "setting": "CK1δ(h) (human)", "value": 78, "unit": "%"}, {"measurement": "% activity, 100 µM", "setting": "Met(D1246H)(h) (human)", "value": 150, "unit": "%"}, {"measurement": "% activity, 100 µM", "setting": "ALK(h) (human)", "value": 12, "unit": "%"}, {"measurement": "% activity, 100 µM", "setting": "Src(1-530)(h) (human)", "value": 21, "unit": "%"}, {"measurement": "% activity, 100 µM", "setting": "Hck(h) (human)", "value": 78, "unit": "%"}, {"measurement": "% activity, 100 µM", "setting": "CHK1(h) (human)", "value": 65, "unit": "%"}, {"measurement": "% activity, 100 µM", "setting": "EGFR(L858R)(h) (human)", "value": 26, "unit": "%"}, {"measurement": "% activity, 100 µM", "setting": "Haspin(h) (human)", "value": 25, "unit": "%"}, {"measurement": "% activity, 100 µM", "setting": "p70S6K(h) (human)", "value": 3, "unit": "%"}, {"measurement": "% activity, 100 µM", "setting": "[1]", "value": 45, "unit": "%"}, {"measurement": "% activity, 100 µM", "setting": "LIMK1(h) (human)", "value": 87, "unit": "%"}]}
